{"source": "the supplement of paper PMC9112550", "about": "“Optimization of the antimicrobial peptide Bac7 by deep mutational scanning” (BMC Biology, 2022);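 further: peptides expressed intracellularly from a pBAD plasmid library in pooled LB shake-flask culture, induced with 0.3% L-arabinose, DNA abundance read by NGS, three biological replicates, DESeq2 with apeglm shrinkage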"}
{"tested_on": "Escherichia coli TOP10", "assay": "shrunken log2 fold change of peptide-encoding DNA abundance (4.5 h post-induction vs induction); higher = less antimicrobial activity (less host growth inhibition)", "conditions": "time post-induction: 4.5 h; library: site-saturation at positions 5, 18, 19, 20"}
{"sequence": "RRIRWRPPRLPRPRPRPHKWPRP", "shrunken log2 fold change": 0.18}
{"sequence": "RRIRTRPPRLPRPRPRPPFTPRP", "shrunken log2 fold change": 0.0073}
{"sequence": "RRIRGRPPRLPRPRPRPGMFPRP", "shrunken log2 fold change": 0.474}
{"sequence": "RRIRKRPPRLPRPRPRPHPIPRP", "shrunken log2 fold change": 0.0828}
{"sequence": "RRIRGRPPRLPRPRPRPWCPPRP", "shrunken log2 fold change": 0.236}
{"sequence": "RRIRRRPPRLPRPRPRPRPTPRP", "shrunken log2 fold change": 0.821}
{"sequence": "RRIRGRPPRLPRPRPRPCPAPRP", "shrunken log2 fold change": 0.383}
{"sequence": "RRIRMRPPRLPRPRPRPFMFPRP", "shrunken log2 fold change": 0.0892}
{"sequence": "RRIRVRPPRLPRPRPRPFRYPRP", "shrunken log2 fold change": -0.0399}
{"sequence": "RRIRPRPPRLPRPRPRPTLRPRP", "shrunken log2 fold change": 0.449}
{"sequence": "RRIRYRPPRLPRPRPRPMWLPRP", "shrunken log2 fold change": -0.224}
{"sequence": "RRIRARPPRLPRPRPRPYLMPRP", "shrunken log2 fold change": -0.648}
{"sequence": "RRIRVRPPRLPRPRPRPLMGPRP", "shrunken log2 fold change": 0.0412}
{"sequence": "RRIRVRPPRLPRPRPRPLQNPRP", "shrunken log2 fold change": 0.0527}
{"sequence": "RRIRWRPPRLPRPRPRPKPMPRP", "shrunken log2 fold change": 0.171}
{"sequence": "RRIRERPPRLPRPRPRPWWCPRP", "shrunken log2 fold change": -0.426}
{"sequence": "RRIRPRPPRLPRPRPRPHGNPRP", "shrunken log2 fold change": -0.654}
{"sequence": "RRIRLRPPRLPRPRPRPGIYPRP", "shrunken log2 fold change": -0.318}
{"sequence": "RRIRCRPPRLPRPRPRPFCSPRP", "shrunken log2 fold change": -0.008}
{"sequence": "RRIRARPPRLPRPRPRPNRWPRP", "shrunken log2 fold change": 0.331}
{"sequence": "RRIRPRPPRLPRPRPRPCNQPRP", "shrunken log2 fold change": -0.0514}
{"sequence": "RRIRWRPPRLPRPRPRPGVSPRP", "shrunken log2 fold change": 0.34}
{"sequence": "RRIRGRPPRLPRPRPRPCRYPRP", "shrunken log2 fold change": 0.24}
{"sequence": "RRIRRRPPRLPRPRPRPHDFPRP", "shrunken log2 fold change": 0.103}
{"sequence": "RRIRPRPPRLPRPRPRPENHPRP", "shrunken log2 fold change": -0.0822}
{"sequence": "RRIRGRPPRLPRPRPRPLHMPRP", "shrunken log2 fold change": 0.379}
{"sequence": "RRIRHRPPRLPRPRPRPKGIPRP", "shrunken log2 fold change": -0.092}
{"sequence": "RRIRFRPPRLPRPRPRPWLYPRP", "shrunken log2 fold change": -1.2}
{"sequence": "RRIRFRPPRLPRPRPRPSVRPRP", "shrunken log2 fold change": -0.302}
{"sequence": "RRIRFRPPRLPRPRPRPHWMPRP", "shrunken log2 fold change": -0.457}
{"sequence": "RRIRQRPPRLPRPRPRPEYEPRP", "shrunken log2 fold change": -0.157}
{"sequence": "RRIRERPPRLPRPRPRPRMEPRP", "shrunken log2 fold change": -0.00684}
{"sequence": "RRIRWRPPRLPRPRPRPAPWPRP", "shrunken log2 fold change": 0.319}
{"sequence": "RRIRFRPPRLPRPRPRPLLEPRP", "shrunken log2 fold change": -0.0853}
{"sequence": "RRIRPRPPRLPRPRPRPWRFPRP", "shrunken log2 fold change": 0.212}
{"sequence": "RRIRERPPRLPRPRPRPQTYPRP", "shrunken log2 fold change": -1.1}
{"sequence": "RRIRRRPPRLPRPRPRPVRRPRP", "shrunken log2 fold change": 0.619}
{"sequence": "RRIRCRPPRLPRPRPRPPPCPRP", "shrunken log2 fold change": 1.07}
{"sequence": "RRIRDRPPRLPRPRPRPAWRPRP", "shrunken log2 fold change": 0.812}
{"sequence": "RRIRTRPPRLPRPRPRPCWMPRP", "shrunken log2 fold change": -0.259}
{"sequence": "RRIRGRPPRLPRPRPRPAQTPRP", "shrunken log2 fold change": 0.221}
{"sequence": "RRIRFRPPRLPRPRPRPLNWPRP", "shrunken log2 fold change": -0.109}
{"sequence": "RRIRWRPPRLPRPRPRPWISPRP", "shrunken log2 fold change": -0.124}
{"sequence": "RRIRKRPPRLPRPRPRPWFMPRP", "shrunken log2 fold change": -0.202}
{"sequence": "RRIRMRPPRLPRPRPRPRQRPRP", "shrunken log2 fold change": 1.79}
{"sequence": "RRIRCRPPRLPRPRPRPWTHPRP", "shrunken log2 fold change": -0.325}
{"sequence": "RRIRWRPPRLPRPRPRPSMLPRP", "shrunken log2 fold change": -0.369}
{"sequence": "RRIRIRPPRLPRPRPRPGHTPRP", "shrunken log2 fold change": -0.165}
{"sequence": "RRIRNRPPRLPRPRPRPERKPRP", "shrunken log2 fold change": -0.016}
{"sequence": "RRIRGRPPRLPRPRPRPCCYPRP", "shrunken log2 fold change": 0.786}
{"sequence": "RRIRSRPPRLPRPRPRPKEDPRP", "shrunken log2 fold change": 1.6}
{"sequence": "RRIRTRPPRLPRPRPRPQGIPRP", "shrunken log2 fold change": 0.0112}
{"sequence": "RRIRPRPPRLPRPRPRPYKAPRP", "shrunken log2 fold change": -0.183}
{"sequence": "RRIRVRPPRLPRPRPRPKIIPRP", "shrunken log2 fold change": -0.645}
{"sequence": "RRIRRRPPRLPRPRPRPTERPRP", "shrunken log2 fold change": 0.409}
{"sequence": "RRIRKRPPRLPRPRPRPCWGPRP", "shrunken log2 fold change": 0.0634}
{"sequence": "RRIRPRPPRLPRPRPRPFRLPRP", "shrunken log2 fold change": -0.465}
{"sequence": "RRIRTRPPRLPRPRPRPVFIPRP", "shrunken log2 fold change": -0.475}
{"sequence": "RRIRRRPPRLPRPRPRPAPQPRP", "shrunken log2 fold change": 1.39}
{"sequence": "RRIRTRPPRLPRPRPRPHFLPRP", "shrunken log2 fold change": -0.218}
{"sequence": "RRIRNRPPRLPRPRPRPPKCPRP", "shrunken log2 fold change": 0.189}
{"sequence": "RRIRPRPPRLPRPRPRPQDAPRP", "shrunken log2 fold change": 0.355}
{"sequence": "RRIRVRPPRLPRPRPRPACCPRP", "shrunken log2 fold change": 0.161}
{"sequence": "RRIRARPPRLPRPRPRPHTEPRP", "shrunken log2 fold change": -0.0331}
{"sequence": "RRIRARPPRLPRPRPRPFSEPRP", "shrunken log2 fold change": -0.122}
{"sequence": "RRIRPRPPRLPRPRPRPMYWPRP", "shrunken log2 fold change": -0.0489}
{"sequence": "RRIRVRPPRLPRPRPRPRLTPRP", "shrunken log2 fold change": 0.169}
{"sequence": "RRIRYRPPRLPRPRPRPDPGPRP", "shrunken log2 fold change": -0.124}
{"sequence": "RRIRIRPPRLPRPRPRPRDHPRP", "shrunken log2 fold change": -0.0591}
{"sequence": "RRIRWRPPRLPRPRPRPSPEPRP", "shrunken log2 fold change": 0.383}
{"sequence": "RRIRQRPPRLPRPRPRPKRGPRP", "shrunken log2 fold change": 0.38}
{"sequence": "RRIRIRPPRLPRPRPRPYPGPRP", "shrunken log2 fold change": -0.0674}
{"sequence": "RRIRTRPPRLPRPRPRPKRKPRP", "shrunken log2 fold change": 0.0722}
{"sequence": "RRIRLRPPRLPRPRPRPEVHPRP", "shrunken log2 fold change": 0.101}
{"sequence": "RRIRYRPPRLPRPRPRPIVLPRP", "shrunken log2 fold change": -0.213}
